From patent US8022188B2, “Immunosuppressant binding antibodies and methods of obtaining and using same” (Abbott Laboratories, priority 2006, dated 2011)
Like-named read-outs stand apart in the source and are kept apart here.

Columns and labels:
[1] = cited from earlier work
[2] = Kinetic Exclusion Assay (KinExA) affinity determination of IgG; type: binding; conditions: for Fold Improvement: KD, relative to 1-60-46 WT IgG
Experimental: The equilibrium dissociation constants for both the 1-60-46 AM2 IgG and the 1-60-46 WT mAb IgG produced from the murine hybridoma cell line 1-60-46 were determined using Kinetic Exclusion Assay (KinExA®), available from Sapidyne Instruments (Boise, Id.) (See, Darling and Brault, ASSAY and Drug Development Technologies, 2(6):647-657 (2004)). A constant amount of IgG antibody (AM2 or WT) was incubated with various concentrations (10^−8 M to 10^−13 M) of tacrolimus drug (commercially available from Astellas Pharma, Inc., Tokyo, Japan) and allowed to come to equilibrium (2 hours to 14 hours) before sampling. The amount of free binding sites was determined by injecting the antibody:tacrolimus reaction mixture over bt-tacro immobilized to a solid-phase. Tacrolimus IgG antibody bound to the bt-tacro immobilized to the solid-phase was subsequently detected by injecting goat anti-mouse polyclonal antibody conjugates (GAM) to Cy5 (GAM-Cy5) fluorescent dye. The degree of GAM-Cy5 bound was proportional to the amount of tacrolimus IgG bound to the immobilized bt-tacro and was detected after excitation with the appropriate wavelength. The KD was determined by analyzing the amount of free binding sites versus the amount of antigen present in the reaction sample using software provided by the manufacturer (Sapidyne Instruments; Boise, Id.).

improvement in KD relative to the 1-60-46 WT IgG ([2]; physiological diluent) [fold]	Kd ([2]; physiological diluent (PBS pH 7.4, 1% BSA), read-out: KD (no MeOH)) [pM]	improvement in KD relative to the 1-60-46 WT IgG ([2]; selection diluent) [fold]	Kd ([2]; selection diluent (PBS, 1% BSA, 10% methanol), read-out: Kd (10% MeOH)) [pM]	Molecule	in vivo potency greater than cyclosporine CsA [1]	Fold Improvement ([2]; 10% MeOH) [x]	Fold Improvement ([2]; no MeOH) [x]
–	–	–	–	C=CC[C@@H]1/C=C(\C)C[C@H](C)C[C@H](OC)[C@H]2O[C@@](O)(C(=O)C(=O)N3CCCC[C@H]3C(=O)O[C@H](/C(C)=C/[C@@H]3CC[C@@H](O)[C@H](OC)C3)[C@H](C)[C@@H](O)CC1=O)[C@H](C)C[C@@H]2OC [Tacrolimus]	50-100 times	–	–
16	1.2	12	13	1-60-46 AM2 IgG: murine IgG2a/κ containing the H2-1A, L1-1B and L3-A mutations; SEQ ID NO:40 and 42 (antibody, Mouse) heavy: EVELVESGGDLVKPGGSLKLSCAASGFTFSSYGMSWVRQTPDKRLEWVATISSGGAWTFYPDSVKGRFTISRDNAKNTLSLQMSSLKSADTAMYYCSRQTDGYSWFPYWGQGTLVTVSASAKTTAPSVYPLAPVCGDTTGSSVTLGCLVKGYFPEPVTLTWNSGSLSSGVHTFPAVLQSDLYTLSSSVTVTSSTWPSQSITCNVAHPASSTKVDKKIEPRGPTIKPCPPCKCPAPNLLGGPSVFIFPPKIKDVLMISLSPIVTCVVVDVSEDDPDVQISWFVNNVEVHTAQTQTHREDYNSTLRVVSALPIQHQDWMSGKEFKCKVNNKDLPAPIERTISKPKGSVRAPQVYVLPPPEEEMTKKQVTLTCMVTDFMPEDIYVEWTNNGKTELNYKNTEPVLDSDGSYFMYSKLRVEKKNWVERNSYSCSVVHEGLHNHHTTKSFSRTPGK light: DVLMTQTPLSLPVSLGDQASISCKSSQGLVHSTGNTFLEWFLQKPGQSPKLLIYKISNRFSGVPDRFSGSGSGTDFTLKISRVESEDLGVYYCFQGSHAPLTFGAGTKLELKRASADAAPTVSIFPPSSEQLTSGGASVVCFLNNFYPKDINVKWKIDGSERQNGVLNSWTDQDSKDSTYSMSSTLTLTKDEYERHNSYTCEATHKTSTSPIVKSFNRNEC	–	12	16
